Molecular target: T1, recombinant human C1r2s2 tetramer (human, UniProt P09871 16-688; P00736 18-705)
T1 construct: Heterotetramer of two C1r and two C1s chains, co-expressed in FreeStyle293-F cells; also called human C1r2s2s
T1 chain 1: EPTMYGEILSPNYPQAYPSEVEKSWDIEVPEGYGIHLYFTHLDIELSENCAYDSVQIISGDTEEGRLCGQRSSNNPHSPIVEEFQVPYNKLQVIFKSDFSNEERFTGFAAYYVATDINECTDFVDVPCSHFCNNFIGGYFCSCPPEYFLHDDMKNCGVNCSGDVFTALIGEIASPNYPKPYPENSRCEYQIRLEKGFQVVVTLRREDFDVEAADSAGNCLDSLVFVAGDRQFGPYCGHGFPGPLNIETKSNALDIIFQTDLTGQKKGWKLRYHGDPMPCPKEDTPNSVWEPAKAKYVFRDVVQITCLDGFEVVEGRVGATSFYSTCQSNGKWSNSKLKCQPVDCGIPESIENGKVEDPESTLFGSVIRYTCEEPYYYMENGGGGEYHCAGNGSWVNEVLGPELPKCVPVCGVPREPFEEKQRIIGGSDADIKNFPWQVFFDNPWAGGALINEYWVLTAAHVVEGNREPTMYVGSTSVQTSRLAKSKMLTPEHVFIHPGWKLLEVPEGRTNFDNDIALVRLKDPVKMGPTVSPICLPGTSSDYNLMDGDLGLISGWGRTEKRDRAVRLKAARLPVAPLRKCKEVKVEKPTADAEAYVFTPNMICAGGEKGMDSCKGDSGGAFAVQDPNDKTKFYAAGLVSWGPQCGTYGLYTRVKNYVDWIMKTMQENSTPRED
T1 chain 2: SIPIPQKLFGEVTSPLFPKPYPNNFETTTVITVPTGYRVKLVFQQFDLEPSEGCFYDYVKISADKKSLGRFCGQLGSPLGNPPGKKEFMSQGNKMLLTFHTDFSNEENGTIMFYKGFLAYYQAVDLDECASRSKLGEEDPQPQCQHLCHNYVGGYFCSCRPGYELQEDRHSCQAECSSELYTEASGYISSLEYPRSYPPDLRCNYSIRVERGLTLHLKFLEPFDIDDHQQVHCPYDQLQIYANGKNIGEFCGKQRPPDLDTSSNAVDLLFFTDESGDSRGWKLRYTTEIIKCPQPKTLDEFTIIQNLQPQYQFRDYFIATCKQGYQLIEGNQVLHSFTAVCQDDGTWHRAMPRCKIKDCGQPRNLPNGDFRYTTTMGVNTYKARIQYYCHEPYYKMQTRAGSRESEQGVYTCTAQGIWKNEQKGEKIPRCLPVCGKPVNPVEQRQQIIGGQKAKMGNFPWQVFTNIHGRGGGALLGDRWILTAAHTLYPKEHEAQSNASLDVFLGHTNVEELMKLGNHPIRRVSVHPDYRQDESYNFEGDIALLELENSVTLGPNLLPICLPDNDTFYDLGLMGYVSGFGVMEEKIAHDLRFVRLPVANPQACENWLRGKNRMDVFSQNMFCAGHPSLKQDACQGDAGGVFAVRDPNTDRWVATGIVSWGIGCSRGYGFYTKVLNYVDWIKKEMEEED
Experiment: SPR (Biacore), antibody captured on ProA/G, antigen as analyte, 37 C, pH7.4, 1.2 mM CaCl2
Protocol: The kinetic parameters of anti-C1s antibodies against recombinant human C1s (as described in PCT/JP2018/042054), human C1r2s2, and cyno C1r2s2 His/Flag (also referred as cyno C1r2s2 in the Table and Figures) were assessed at pH7.4 and pH5.8, at 37 degrees C. using BIACORE (registered trademark) T200 instrument (GE Healthcare) or BIACORE 4000 (GE Healthcare). ProAG (Pierce) was immobilized onto a CM4 sensorchip using amine coupling kit (GE Healthcare) according to the recommended settings by GE Healthcare. Antibodies and analytes were diluted into the respective running buffers, ACES pH7.4 and pH5.8 (20 mM ACES, 150 mM NaCl, 1.2 mM CaCl₂, 1 mg/ml BSA, 1 mg/ml CMD, 0.05% Tween 20, 0.005 w/v % NaN₃). Each antibody was captured onto the sensor surface by ProA/G. Antibody capture levels were typically 100-200 resonance units (RU). Then, recombinant C1s was injected at concentrations of 25 and 50 nM followed by dissociation at pH7.4 and pH5.8. The surface was regenerated using 10 mM Glycine-HCl, pH1.5. Kinetic parameters at neutral pH conditions and acidic conditions were determined by fitting the sensorgrams with 1:1 binding model using BIACORE (registered trademark) T200 Evaluation software, version 2.0 (GE Healthcare) or BIACORE 4000 Evaluation software. The dissociation rate at pH5.8 (after dissociation at pH7.4, indicated as pH5.8* in TABLE 2) was determined by processing and fitting data using Scrubber 2.0 (BioLogic Software) curve fitting software. The association rate (ka), dissociation rate (kd), binding affinity (KD) at pH7.4 and pH5.8 condition, and dissociation rate (kd) at pH5.8* condition of the antibodies are listed in TABLE 2. Some kinetic parameters of COS0098pHv1 in acidic condition were not correctly calculated because of its weak binding response.
Also, to observe the cross-reactivity of anti-C1s antibodies against human C1r2s2 and cyno C1r2s2 (cyno C1r2s2 His/Flag), BIACORE (registered trademark) kinetics analysis was performed.

Kd: 4 nM | koff: 0.00206 s⁻¹ | kon: 514000 M⁻¹ s⁻¹
B1: COS0098pHv1 (antibody, V domains shown)
VH: QVQLVQSGAEVKKPGSSVKVSCKASGHTFSKYTVSWIRQPPGKGLEWIGIINTGGSAYPATWAKGRVTITADESTSTAYMELSSLRSEDTAVYYCARGAGDTDYTNLWGQGTLVTVSS
VL: DIQMTQSPSSLSASVGDRVTITCQASENIYSALAWYQQKPGQPPKLLIYGASQLESGVPSRFSGSGSGTDFTLTISSLQPEDFATYYCQQYYFTSHTFGQGTKVEIK
notes: Humanized, optimized pH-dependent variant of COS0098bb

From patent US20230002481A1 (Chugai, published 2023)
